Test results reported in publication PMC3902935.

Experiments:
[1] = target: T1, APOBEC3A (A3A) WT (human, UniProt P31941 1-199); test: NMR titration (1H-15N HSQC); 25 mM sodium phosphate pH 6.9, 10 mM DTT, 25 C; Zn2+ enzyme; NMR: 25 mM sodium phosphate pH 6.9, 10 mM DTT, 25 C, 0.074 mM A3A; EMSA: protocol of Byeon et al. (ref 16), buffer not given, 20 nM DNA, 25-100 uM A3A
[2] = target: T1, APOBEC3A (A3A) WT; test: EMSA; 20 nM DNA; NMR: 25 mM sodium phosphate pH 6.9, 10 mM DTT, 25 C, 0.074 mM A3A; EMSA: protocol of Byeon et al. (ref 16), buffer not given, 20 nM DNA, 25-100 uM A3A
[3] = target: APOBEC3A Y130F (human, UniProt P31941 1-199, Y130F); test: EMSA; 60 or 80 uM protein; similar to WT; NMR: 25 mM sodium phosphate pH 6.9, 10 mM DTT, 25 C, 0.074 mM A3A; EMSA: protocol of Byeon et al. (ref 16), buffer not given, 20 nM DNA, 25-100 uM A3A
[4] = target: APOBEC3A D131E (human, UniProt P31941 1-199, D131E); test: as above
[5] = target: APOBEC3A E72Q (human, UniProt P31941 1-199, E72Q); test: as above
Chain of APOBEC3A E72Q (P31941 whole entry E72Q): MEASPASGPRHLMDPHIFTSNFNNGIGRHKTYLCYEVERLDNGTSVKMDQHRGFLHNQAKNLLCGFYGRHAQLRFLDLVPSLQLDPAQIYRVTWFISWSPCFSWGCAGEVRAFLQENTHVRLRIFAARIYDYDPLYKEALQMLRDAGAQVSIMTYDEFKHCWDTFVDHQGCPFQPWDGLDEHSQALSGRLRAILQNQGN

T1 sequence (P31941 whole entry): as the sequence (P31941 whole entry E72Q) above, with Q72E counted along it
Chain of APOBEC3A Y130F (P31941 whole entry Y130F): as the sequence (P31941 whole entry E72Q) above, with Q72E, Y130F counted along it
Chain of APOBEC3A D131E (P31941 whole entry D131E): as the sequence (P31941 whole entry E72Q) above, with Q72E, D131E counted along it

Row | Binder | Kd [1] | binding result [2] | binding result [3] | binding result [4] | binding result [5]
1 | AUUUCAUUU (ssRNA) [JL1181 9-nt ssRNA] | 420 ± 70 µM | – | – | – | –
2 | JL988 80-nt ssDNA (ssDNA) DNA: ATTATTATTATTATTATTATTATTATTATTATTATTATTATTATTTCATTTATTTATTTATTTATTTATTTATTTATTTA | – | binds | binds | binds | binds
3 | JL987 70-nt ssDNA (ssDNA) DNA: ATTATTATTATTATTATTATTATTATTATTATTATTATTTCATTTATTTATTTATTTATTTATTTATTTA | – | binds | – | – | –
4 | JL986 60-nt ssDNA (ssDNA) DNA: ATTATTATTATTATTATTATTATTATTATTATTTCATTTATTTATTTATTTATTTATTTA | – | binds | – | – | –
